Assay [1] addresses T1, full length monkey MSR1 on HEK293.mfMSR1 cells (Macaca fascicularis, UniProt A0A2K5UWE2 1-451).
T1 construct: whole, on cells
T1 sequence: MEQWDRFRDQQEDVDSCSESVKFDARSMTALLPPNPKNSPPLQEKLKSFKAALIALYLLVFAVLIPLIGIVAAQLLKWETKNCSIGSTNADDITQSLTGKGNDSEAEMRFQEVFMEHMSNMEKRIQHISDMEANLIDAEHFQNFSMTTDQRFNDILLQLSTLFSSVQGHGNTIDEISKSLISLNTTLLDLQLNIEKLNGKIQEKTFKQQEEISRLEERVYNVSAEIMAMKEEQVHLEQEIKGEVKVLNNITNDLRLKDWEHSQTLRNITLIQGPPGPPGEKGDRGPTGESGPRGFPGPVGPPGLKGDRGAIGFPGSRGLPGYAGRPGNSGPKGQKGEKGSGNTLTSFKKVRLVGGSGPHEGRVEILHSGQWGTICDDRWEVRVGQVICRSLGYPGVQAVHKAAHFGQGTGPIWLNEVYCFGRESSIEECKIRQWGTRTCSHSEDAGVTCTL
Description: ECL cell binding, HEK293.mfMSR1.
Description: (§1) All cells were washed once with 1×PBS with Ca²⁺/Mg²⁺ and counted with a Cellometer™ Auto T4 cell counter (Nexcelom Bioscience). Approximately 1.0×10⁴ cells were seeded separately onto 96-well carbon electrode plates [MULTI-ARRAY high bind plate, Meso Scale Diagnostics] and incubated for 1 hour at 37° C. Non-specific binding sites were then blocked by 2% BSA (w/v) in PBS with Ca²⁺/Mg²⁺ for 1 hour at room temperature. THP-1 cells were pre-incubated for 0.5 hours at room temperature in sample dilution buffer with: 1) 1 mg/mL Fc receptor block reagents to block Fc gamma receptors on THP-1 cell surface [whole molecule human IgG (Jackson Immunoresearch, Cat #009-000-003) for wells being tested with anti-MSR1-mFc antibodies or 2) whole molecule mIgG (Jackson Immunoresearch, Cat #015-000-003) for wells being tested with anti-MSR1-hFc antibodies. Antibody binding on HEK293.Myc.hMSR1, HEK293.mfMSR1 and HEK293 cells was tested without Fc receptor block reagents. […] Plates were then washed to remove unbound antibodies an AquaMax2000 plate washer with a cell washing head (MDS Analytical Technologies). […] Plates were washed and developed with Read Buffer (Meso Scale Diagnostics, Cat #R92TD-2) according to manufacturer's recommended procedure and luminescent signals were recorded with a SECTOR Imager 600 (Meso Scale Diagnostics). Luminescence intensity, measured in relative light units (RLU), was recorded to indicate the binding intensity of each antibody at the range of concentrations.

The target of assay [2] is T2, mouse MSR1 on RAW264.7 cells (mouse, UniProt P30204 1-458).
T2 construct: whole, on cells
T2 sequence (looked up): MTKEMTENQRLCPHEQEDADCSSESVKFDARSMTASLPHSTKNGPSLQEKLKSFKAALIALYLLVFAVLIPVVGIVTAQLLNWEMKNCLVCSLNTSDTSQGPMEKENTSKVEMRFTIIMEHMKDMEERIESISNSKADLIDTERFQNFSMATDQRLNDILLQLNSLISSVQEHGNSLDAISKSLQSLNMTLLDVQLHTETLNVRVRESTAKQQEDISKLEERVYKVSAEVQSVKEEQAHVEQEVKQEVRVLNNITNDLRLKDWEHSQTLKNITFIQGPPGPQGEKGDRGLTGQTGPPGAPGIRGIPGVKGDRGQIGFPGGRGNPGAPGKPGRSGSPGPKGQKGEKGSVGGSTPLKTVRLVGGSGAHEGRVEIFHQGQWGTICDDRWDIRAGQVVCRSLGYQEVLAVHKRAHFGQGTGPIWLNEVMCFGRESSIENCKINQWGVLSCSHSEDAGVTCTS
Description: flow cytometry, RAW264.7 cells, 10 ug/mL.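 Note: antibodies bound to RAW264.7 cells for 30 min on ice after Fc block with mouse IgG, S/N is MFI relative to unstained cells.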
Description: To block binding to Fc receptors, RAW264.7 cells were incubated for 30 minutes at 4° C. with 500 μg/mL mouse IgG (Jackson ImmunoResearch, Cat #015-000-003) diluted in staining buffer, while B16F10.9 cells remained in staining buffer. Following Fc receptor blocking, 10 μg/mL of anti-MSR1 antibodies or an isotype control antibody were added to the cells and were subsequently incubated for 30 minutes on ice. […] The signal to noise (S/N) was determined by calculating the ratio of the anti-MSR1 antibodies or the control antibodies MFI to the unstained sample MFI (Table 16).

The target in assay [3] is T3, full length human MSR1 with a C-terminal Myc tag on HEK293.Myc.hMSR1 cells (human, UniProt P21757 1-451).
T3 construct: whole, on cells
T3 sequence (looked up): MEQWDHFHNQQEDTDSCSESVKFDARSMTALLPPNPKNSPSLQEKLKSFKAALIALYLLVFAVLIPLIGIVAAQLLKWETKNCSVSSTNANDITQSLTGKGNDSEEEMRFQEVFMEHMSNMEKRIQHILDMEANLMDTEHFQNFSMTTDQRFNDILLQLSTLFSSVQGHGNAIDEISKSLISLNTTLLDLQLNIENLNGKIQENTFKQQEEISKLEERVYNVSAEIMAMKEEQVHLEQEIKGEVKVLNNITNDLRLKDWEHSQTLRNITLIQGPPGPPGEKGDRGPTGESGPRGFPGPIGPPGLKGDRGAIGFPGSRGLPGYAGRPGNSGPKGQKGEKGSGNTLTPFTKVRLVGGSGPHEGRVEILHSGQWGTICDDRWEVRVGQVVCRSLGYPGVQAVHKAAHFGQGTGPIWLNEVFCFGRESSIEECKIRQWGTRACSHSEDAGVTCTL
Description: ECL cell binding, HEK293.Myc.hMSR1.
Description: as §1

B1: H1H27759P2-N297Q (antibody, human IgG1, V domains shown)
VH: EVQLVESGGGFVQPGGSLRLSCAASGFTFSSYAMSWVRQAPGKGLEWVSAISGTGSNTYYADSVKGRFTISRDNSKNTLYLQMNSLRAEDTAVYYCAKDRVTTVTYYFDYWGQGTLVTVSS
VL: not shown
notes: human IgG1 Fc with N297Q; also called H1H27759P-N297Q
Consider B1, for which the “binding signal ratio to isotype control (11 nM)” value (“binding signal ratio” below) in assay [1] was determined as 25 fold; in assay [3], 23 fold. Besides, in assay [2], the MFI is 3290. Besides, in assay [2], the S/N came out at 1.

B2: H1xH29282P2 (antibody, V domains shown)
VH: EVQLVESGGGLVQPGGSLRLSCAASGFTFSTYAMSWVRQAPGKGLEWVSTISGRSDITYFADSVKGRFTVSRDNSKTTLYLQMNSLRAEDTAVYYCATDDDLPLDYWGQGTLVTVSS
VL: not shown
notes: prefix H1xH not explained for the anti-MSR1 antibodies
Regarding B2, the entries for the “binding signal ratio” value in assay [1] and in assay [3] were 1 fold and 9 fold, respectively.

B3: H1H27762P2-N297Q (antibody, human IgG1, V domains shown)
VH: QVQLVQSGAEVKKPGSSVKVSCKASGGTFSRYDISWVRQAPGQGLEWMGGIIPIFGTSNYAQKFQGRVTITTDESTSTVYMELSSLRSEDTAVYYCARGGRYGWFDPWGQGTLVTVSS
VL: not shown
notes: human IgG1 Fc with N297Q; also called H1H27762P-N297Q
As for B3, in assay [1], the “binding signal ratio” value came out at 25 fold. In assay [2], this molecule returned an MFI of 3520 and a S/N of 1. Besides, the “binding signal ratio” value in assay [3] turned out to be 33 fold.

B4: H1H27731P-N297Q (antibody, V domains shown)
VH: QLQLQESGPGLVKPSETLSLTCTVSGGSISRISYYWGWIRQPPGKGLEWIGSIYDSGSTYYNPSLKSRVTISIDTSKNQFSLKLSSVTAADTAVYYCVRYSSSSAFAFDYWGQGTLVTVSS
VL: DIQMTQSPSSVSASVGDRVTITCRASQGISSWLAWYQQKPGKAPKLLIYAASSLQSGVPSRFSGSGSGTDFTLTISSLQPEDFATYYCQQANSFPFTFGPGTKVDIKR
notes: human IgG1 Fc with N297Q
For the molecule B4, the “binding signal ratio” value in assay [1] came out at 43 fold. In assay [2], the MFI amounted to 3510 and the S/N turned out to be 1. Further, in assay [3], the “binding signal ratio” value was determined as 48 fold.

B5: H1H27747P-N297Q (antibody, human IgG1, V domains shown)
VH: QVQLVESGGAVVQPGRSLRLSCAASGFTFSYYGMHWVRQAPGKGLEWVAVISYDGSKKYYADSVKGRFTISRDNSKNTLYLQMNSLRAEDTAVYYCAKDLTVDFYYGMDVWGQGTTVTVSS
VL: DIQMTQSPSSVSASVGDRVTITCRASQGISSWLAWYQQKPGKAPKLLIYATSSLQSGAPSRFSGSGSGTDFTLTISSLQPEDFATYFCQQANSFPYTFGQGTKLEIKR
notes: human IgG1 Fc with N297Q
As for B5, the “binding signal ratio” value in assay [1] amounted to 21 fold. In assay [2], the MFI was 3630 and the S/N was 1. The “binding signal ratio” value in assay [3] was found to be 26 fold.

B6: H1H27754P-N297Q (antibody, human IgG1, V domains shown)
VH: EVQLVESGGGLVQPGGSLRLSCAASGFTFRTYAMTWVRQAPGKGLDWVSAITGDGGNTYYADSVKGRFTISRDNSKNTLYLQMNSLRAEDTAIYYCAKDQRFSFALYYFDYWGQGTLVTVSS
VL: DIQMTQSPSSVSASVGDRVTITCRASQGISSWLAWYQQKPGNAPKLLIYAAFSLQSGVPSRFSGSGSGTDFTLTISSLQPEDFATYYCQQANNFPWTFGQGTKVEIKR
notes: human IgG1 Fc with N297Q
For B6, the figures for the “binding signal ratio” value in assay [1] and in assay [3] were 53 fold and 55 fold, respectively. In assay [2], this molecule returned an MFI of 5410. Besides, the S/N in assay [2] was 1.

B7: H1H27766P2-N297Q (antibody, human IgG1, V domains shown)
VH: EVQLVESGGGLVQPGGSLRLSCAASGFTFSSFAMSWVRQAPGKELEWVSSISGRGGSTYYADSVRGRFTISRDNSKITLYLQMNSLRAEDTAVYYCAKDIVFRYTSSAYWYFDLWGRGTLVTVSS
VL: not shown
notes: human IgG1 Fc with N297Q; also called H1H27766P-N297Q
On to B7, for which the “binding signal ratio” value in assay [1] was determined as 13 fold; in assay [3], 20 fold. In assay [2], this molecule returned an MFI of 3810. The molecule also returned a S/N in assay [2] of 1.

B8: H1H27729P-N297Q (antibody, human IgG1, V domains shown)
VH: QVQLVESGGGLVKPGGSLRLSCAASGFIFSDYYMSWIRQAPGKGLEWVSYISSSGTTIYGDSVKGRFTMSRDNAKNSLYLQMNSLRAEDTAVYYCARNYALFDYWGQGTLVTVSS
VL: DIQMTQSPSSLSASVGDRVTITCQASQDISKYLNWYQQKPGKAPKLLIYYTSNLETGVPSRFSGSGSGTDFTFTISSLQPEDIATYYCHQSDYLPFTFGPGTKVDIKR
notes: human IgG1 Fc with N297Q
Turning to B8, the “binding signal ratio” value was determined as 6 fold in assay [1] and 17 fold in assay [3]. Moreover, in assay [2], the MFI came out at 3480. Moreover, the S/N in assay [2] was 1.

B9: H1H27734P-N297Q (antibody, human IgG1, V domains shown)
VH: EVQLVESRGGLVQPGGSLRLSCAASGFTFSSYAMSWVRQAPGKGLEWVSAISGSGGSTFYADSVKGRFTISRDNSKNTVYLQMNSLRAEDTAVYYCAKALVLRFLEWLGDYWGQGTLVTVSS
VL: DIQMTQSPSTLSASVGDRVTITCRASQSISSWLAWFQQKPGKAPKLLIYKASSLESGVPSRFSGSGSGTEFTLTISSLQPDDFATYYCQQYKSYWTFGQGTKVEIKR
notes: human IgG1 Fc with N297Q
With B9, the “binding signal ratio” value in assay [1] stood at 28 fold. In assay [2], this molecule had an MFI of 4780 and a S/N of 1. In addition, the “binding signal ratio” value in assay [3] amounted to 40 fold.

B10: H2aM21229N (antibody, mouse IgG2a, V domains shown)
VH: EVQLVESGGGLVKPGGSLRLSCAASGFTFSRYSMNWVRQAPGKGLEWVSSISSSSSYIYYGDTVKGRFTISRDNAKKSLYLQMNSLRAEDTAVYYCVRDRGQLVLYFDYWGQGTLVTVSS
VL: DIQMTQSPASLSTSIRDRVTITCRASLSISSFLNWFQQRPGKAPKLLIYVASNLQSGVPSRFSDSGSGTDFTLTISSLQPEDFATYYCQQNYSTPPITFGQGTRLEIK
notes: mouse IgG2a Fc
For B10, the “binding signal ratio” value in assay [1] came to 27 fold; in assay [3], 78 fold.

B11: H1H27739P-N297Q (antibody, human IgG1, V domains shown)
VH: EVQLVESGGGLVQPGGSLRLSCTASGFTFSSYAMSWVRQAPGKGLEWVSAISGTGSSTYFTDSVKGRFAISRDNSKNTLYLQMNSLRAEDTAVYYCAKDGEWLSTVTLFDYWGQGTLVTVSS
VL: EIVMTQSPATLSVSPGERATLSCRASQSVSSNLAWYQQKPGQAPRLLIYGASTRATGIPARFSGSGSGTDFTLTISSLQSEDFALYYCQQYFIWPPHPTFGPGTKVDIKR
notes: human IgG1 Fc with N297Q
As for B11, in assay [1], the “binding signal ratio” value was determined as 20 fold. Also, in assay [2], the MFI is 3270 and the S/N turned out to be 1. In assay [3], the “binding signal ratio” value was 22 fold.

B12: H1H27751P-N297Q (antibody, human IgG1, V domains shown)
VH: EVQLVESGGGLVQPGGSLRLSCAASGFTFSNYAMHWVRQAPGKGLEYVSAISSNGGSTYYADSVKGRITISRDNSKNTLYLQMGSLRAEDMAVYYCARGRPYYYYFGMDVWGQGTTVTVSS
VL: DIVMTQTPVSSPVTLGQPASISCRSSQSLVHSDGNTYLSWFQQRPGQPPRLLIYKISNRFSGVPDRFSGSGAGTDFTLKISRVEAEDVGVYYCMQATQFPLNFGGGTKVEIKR
notes: human IgG1 Fc with N297Q
B12: the “binding signal ratio” value in assay [1] was found to be 49 fold. Besides, in assay [2], the MFI was found to be 3820 and the S/N is 1. For the same molecule, the “binding signal ratio” value in assay [3] turned out to be 63 fold.

B13: H1H27761P2-N297Q (antibody, human IgG1, V domains shown)
VH: EVQLVESGGDLVQPGGSLRLSCSASGFTFNIYAMSWVRQAPGKGLEWVSGISGSGGSTYYADSVKGRFTISRDNSKNTLYFQMNSLRVEDTAVYYCAKKISSSSYYYYAMDVWGQGTTVTVSS
VL: not shown
notes: human IgG1 Fc with N297Q; also called H1H27761P-N297Q
With B13, the “binding signal ratio” value in assay [1] worked out at 15 fold. In assay [2], the MFI is 3840 and the S/N is 1. For the same molecule, in assay [3], the “binding signal ratio” value stood at 23 fold.

The record behind these values is US20200368361A1 (Regeneron, published 2020).
